Measurements from the DeepSol protein solubility set.

Test: soluble on expression in E. coli; label from the status in PepcDB or PDB records

Sequence	soluble on expression in E. coli
MGSDKIHHHHHHMFAMAGFPDKIKTIKKGLDVPIAGEPRQEIDCCARPAKVALLGEEYVGLKPTLLVEVGDRVKKGQTLFEDKKAPGIGFTAPASGVVVEINRGERRVLQSVVIQVEGDEQVTFKAYSDLSRLSREAVQQNLAESGLWTALRTRPFSRVPLLDSEPAAIFVNAMDTNPLAADPRVIIAEQREAFAAGLEVLTYLTSGKIHLCHDAGEALPGADLARVESHRFAGVHPAGLVGTHIHFIAPASLERPVWHLGYQDVIAYGKLFLTGELYTDRVVALGGPTALNPRLLRTQLGAQLSTLVEGEIKPGSNRVVSGSVLAGHTAFGVHDYLGRFHQQISVLAEDAKHQLLPWVRGGADKFSITRAVTSRFKATKRLFDLTTHAGGSHRAMMAFGQLDRVMPLDILPTLLVRDLVVRDTDEAQALGALELDEEDLALCTFVCPGKYDFGRELRICLDIIEREG	not soluble
SNQEPATILLIDDHPMLRTGVKQLISMAPDITVVGEASNGEQGIELAESLDPDLILLDLNMPGMNGLETLDKLREKSLSGRIVVFSVSNHEEDVVTALKRGADGYLLKDMEPEDLLKALHQAAAGEMVLSEALTPVLAASLRANRATTERDVNQLTPRERDILKLIAQGLPNKMIARRLDITESTVKVHVKHMLKKMKLKSRVEAAVWVHQERIF	soluble
SRSFRPLYRLIGWIDRFRVNEPVQELVMAKTDVTEFRKLSEAMLRTAHHNVEVFEQQKEFISHASHELQTPLAISRNKLEMLLQDPSLNEQQLEQIYKAIQSINHIVQLNKTLLLYSKIENHQFPEEESIDVNELLHNLAEEYEAIFANRRIRIVWSRSEPMVLSMNPTLAKVLLSNLLKNAYLHNLERDGEIHIDLTSMHCSIANTGVKNALDETLIFERFYHDMKQAHSSGLGLPIARSICQLYGLRLTYRFENGKHTFSIGKEA	not soluble
MGNTDKLMNQIFELKFTSKSLQRQARKCEKEERSEKLKVKKAIEKGNMDGARIYAENAIRKRSEQMNYLRLSSRLDAVVARLDTQAKMATITKSMTNIVKSLESSLTTGNLQKMSETMDSFEKQFVNMEVQAEFMDNAMAGSTSLSTPEGEVNSLMQQVADDYGLEVSVGLPQPAGHAIPTKTEEKVEEDDLTRRLAELKARG	not soluble
MFTGLVEAIGVVKDVQGTIDNGFAMKIEAPQILDDCHTGDSIAVNGTCLTVTDFDRYHFTVGIAPESLRLTNLGQCKAGDPVNLERAVLSSTRMGGHFVQGHVDTVAEIVEKKQDGEAIDFTFRPRDPFVLKYIVYKGYIALDGTSLTITHVDDSTFSIMMISYTQSKVIMAKKNVGDLVNVEVDQIGKYTEKLVEAHIADWIKKTQA	soluble
RPDQVKLALDKPAYNDGDTAKVTVTPPAAGKGYLLIESSEGPLWWKEIDVPAEGKSYEIPLDKQWARHDLYVTALVIRPGERKANVTPKRAVGVLHLPLDRAQRKLALTVTAPEKMRPKQPLTLKVVAKNADGSVPEQVQVLVSAVDVGILNITRY	not soluble
MRDVHSISAMNLRDVLSIPEVKQGQVIGKKIPATLGEDGMNVLGEPIKAKPGREFVLRPGKNSTVDEANGTLVAAVDGQMSVDKRTIHVYPVYEVPGDLTMKHGNISFIGNVIIRGHVPDGFVVKAGGDIRVFGTVEGATLEAGGSIFVGAGIVGQNRGCIRAEGGLHTTFINQAKVEVGGDIEVVQSILHSTCTAGGKIICTRGKGNIVGGALSAEDHIYAKEIGNSMHTKTSLYIGAKEKWVTKEKQLAKEYKTTEEELKKLSLLLQKFQELEKENGLTANGRVQRLRVKNTLVQVKEKHEQIKEQLEDVQENLTLNQAGSIVVEQTLYPNVSAHFGKYRRKIVSNHSNVKLSLVDQEIQLSSRLEHHHHHH	not soluble
MGSDKIHHHHHHAAIPDTGNWISHHLLTSDGLTVLAAGPAFAPLKWNIGQNNMGGYKGRLLFIPYDAPSTVPMIPVKPTTNEDLITASGSFTFPSGGTYTQPIYLYSTKGKVGYKAEIQGETDGKSFKQTLEFFFPGNTPGMHAFSTLVKNTPGYFVFEDSDGQQFLMGKPGMYADVSPSFDGGKLAADQRGTAYTATCDANESAVVLGTPIDMEVIAGLKPAPSPGG	not soluble
MSSEACTDPYLRCAFNGAALTALGISHSALLAHSPQGCEYLVNNAFASQECDYMETMTLCTKLCVDEIVHGGEDILARTIREVKDLPISALFVLSACGPEIVGDDIVGVCEALQPEVKFRLVPIESAGFRGSQYDGIDIAMDTILKKLVKDDVEKIPGSVCLEHHHHHH	not soluble
MYYPFVRKALFQLDPERAHEFTFQQLRRITGTPFEALVRQKVPAKPVNCMGLTFKNPLGLAAGLDKDGECIDALGAMGFGSIEIGTVTPRPQPGNDKPRLFRLVDAEGLINRMGFNNLGVDNLVENVKKAHYDGVLGINIGKNKDTPVEQGKDDYLICMEKIYAYAGYIAINISSPNTPGLRTLQYGEALDDLLTAIKNKQNDLQAMHHKYVPIAVKIAPDLSEEELIQVADSLVRHNIDGVIATNTTLDRSLVQGMKNCDQTGGLSGRPLQLKSTEIIRRLSLELNGRLPIIGVGGIDSVIAAREKIAAGASLVQIYSGFIFKGPPLIKEIVTHI	soluble
MGSDKIHHHHHHMMDMLIAHISDTHITNEVAFKSYAYDLIVNEINTKPFDLVVHTGDVTNNGLREEYEHASYLIKKIEKPLVVVPGNHDARNVGYELFEKYIGPLYGVYEFDNGVIIWLDSTIPDLSDGRVGGYKFKWLKEKLEAYSHKKIKIVAAHHHLVPLPDTGRERNVLFNAGDVLDLLLTHEVTLYMCGHKHVPNVYRVEDLVVDNAGCASCRKTRKGDVNSYNIVKITDKGVKVVIRRLTGDEESKEHNPIRPKIFIPRGRRLLRIVQISESNVSDRVYFRKRTLENAIKAINEKYKPDIVIHCGDVVEKGIERYYEKAMEYYEKVKGEKIIVPGHNDISYLGYELFREYFGEPEVLELGDFVFIPILSAQYETQIGVVGRTGQKMLSRMLEEFREKFRIVIMHHNLVPVPGVKEIGYLEDAGNVLKIITENETELTLTGHGGNTSAVKVEKSPIINAGSISWELHRNPFGNSFNIIDIYEDMVVAFEIQATWGSRKVLGMWKIKSEIPWL	not soluble
SGGTSSSTAHLAVVNIIGTIDSSNQSVNSEDTNKALERAFEAKNSKAVALNINSPGGSPVQSDEIWQEIRYLKKQHPDKKVYAVIGDMGASGAYYIASAADEIIVNPSSLVGSIGVIMPNYGITGLAQKLGIEDRTLTSGSNKDILSMTKPVNPAQREHIQSVLDNVHAHFINAVKEGRGTRLKSNDPAIFSGLFWTGEQAIQLGVAD	not soluble
GMREMQIMSQPEQSRLDLFIDRMVSQRACLEHAIAQTAGLSGPVYELGLGNGRTYHHLRQHVQGREIYVFERAVASHPDSTPPEAQLILGDIRETLPATLERFGATASLVHADLGGHNREKNDRFARLISPLIEPHLAQGGLMVSSDRMYFEGLEELPLPPGAVVGRCFIYRRG	soluble
MQDIHFRRHYVRHLPKEVSQNDIIKALASPLINDGMVVSDFADHVITREQNFPTGLPVEPVGVAIPHTDHKYVRQNAISVGILAEPVNFEDMGGEPDPVPVRVVFMLALGESNKQLNVLGWIMDVIQDEDFMQQLLVMNDDEIYQSIYTRISERGEV	soluble
MAVSFKVKERKVMINGQPAKIRYAQTLKTGDMDLSEICDLTSKISAVSEGDVRSIINTVTGLVITGLKQGRAISLGELGRFRISLSSKAAKEGEEFTVENIRRARVLFLPGGDIRRACRQIRLKGINMLRPGEQQGGTPSVPDSPEGGGEQGSGGGGL	not soluble
MGSDKIHHHHHHMLIEIPNVFSKQEVSHLREQLDARRWIDGNQTSGAMATTRKRNQQLDKDDPVAVALGQQIMDRLLAHPQFVSAALPLQFYPPLFNRYQGGETFGYHIDNAIRSTPDGMIRTDLSATLFLSEPENYQGGELVIQDTYGQQSIKLSAGSLVLYPSSSLHQVTPVLSGERTAAFMWLQSMVRDEGQRRLLFQLDQSIQSLTAQTAAEQELFNLSGVYHNLLRRWSEL	not soluble
MGSDKIHHHHHHLGFGAPKISNEEERLRALAEYRILGTQPEQCYDDITKIASLTCGTPISLMSLVDTDTQWFKSMCGFETKETSRDVSFCAHAIASSEPLIVEDALLDERFKSNPLVVEEPKIRLYAGFPLQTPNDQRIGTLCVIDRKPGHLSDHQHQIMEALSRQVVTLLELRKRSIRLLDALTHMHNTEGILTTCSYCKEVRDSDGEWQHLEKYLSKIADIRFSHGICDLCMEKHFPDVLEVWSDDKLDLNSKKNKPECKKSN	not soluble
MSDKRETRIKSVQNLAPVYNVRDDAKTRRRVALTQMLGRAYNQFNAGDDAAAEKLLEEVLRQDRSSIDAWTLRATIYSKRGDVVHSGEYYRKAAQLAPQRGDVLNNYGAWLCANGYPAEALVWFERAMADPAYGEQPGTLANSGGCALQAGQRDRADHDLRRALELDPSNAYALESMARNEYDKHRYFEARAFSERRLATTVPATASVLKLAIQIEQELGDRAAASRYQQRLVKEFPETVAVEPRG	soluble
MGHHHHHHSHMVNKNAGETLLQRAARLGYEEVVLYCLENKICDVNHRDNAGYCALHEACARGWLNIVRHLLEYGADVNCSAQDGTRPLHDAVENDHLEIVRLLLSYGADPTLATYSGRTIMKMTHSELMEKFLTDYLN	not soluble
MGSDKIHHHHHHMSIEFSRWPNNYMMSYQVTKALGLASLGATDVTEIYEACKKIDPNDKETWHREWLITAETLERHGKEAEAVGNWYTARNCYIRACNYNRIAEYTVMDDDNEKIRIFRKVNELFEAAGKYFDVKPEKIQVDYEDVKLDGYFFSPSWIKGPKPTILALNGGDEWSIENYFWLGPAFISCGYNFMVYDQPGTGLSMYEKGKGRRADSEAFHSRAIDFLLTRPEVDPNKIIVHGESFAAYDSLRFASFDHRIAAVISDGGTHAFDWEAMLKWMPPSLAGHGMRILGAKSLDDFAENPRFAYNLEGVLHQIECPLLVMHGAEEILVQPNPLTQALKNYEQAGSKNKTFFPIEDRRIGGLEHCQVDNINVLHEVVLNWLCSIGLGPFAPRPSDC	not soluble
HPWRKGPFTVHDIHIDTEWRSDWKWDRLLPHITPLKNRSVLDVGCGNGYHMWRMLGEDARLCVGIDPSHLFLIQFEAIRKLMGNDQRAHLLPLGIEQLPELNAFDTVFSMGVLYHRRSPLDHLIQLKNQLVAGGELVLETLVIDGDENAVLMPVDRYAQMRNVYFFPSARALKVWLESVGFVDVKIVDECVTTTGEQRSTEWMKHNSLPEYLDPNDSTKTIEGHPAPKRAILIAKKPD	not soluble
MSLTEMLSTEDFDFDLPEELIAQTPLKDRASSRLLVVNKETGDMEDKHFHDILDELQPGDALVMNNTRVLPARLYGEKPETGGHLEVLLLTNTEGDTWETLIKPAKRAKVGTEIQFGDGRLKAVVKEELEHGGRIIEFKYDGIFLEILESLGEMPLPPYIKERLDDPDRYQTVYAEENGSAAAPTAGLHFTKELLEEIKAKGVHLVYLTLHVGLGTFRPVSVDNIEEHHMHSEFYRLTEEAAKQLNEVRQAGGRIVAVGTTSIRTLETIGTKFNGEIQADSGWTDIFITPGYQFKVVEAFSTNFHLPKSTLVMLVSAFAGKDLTLAAYQHAIEEKYRFFSFGDAMFIKEGGSHHHHHH	soluble
MSLQRKVFPKCQWVGVSEMKGIRPTQEDAVICYPFAPNGIHIFSVLDGHGGSKTSNFAACDLFNNLSKLEKVDENTLSGSVSATLKSLKAQHFNDGSTMALAVITPNRHIFSCHLGDSRTIVVRRDGSISHFTKDHKPDEKSEVKRVLSQHGFILKHRVMGLLAVSSSLGDFEVVGIGHQPVIREWVIDESDKWLVICCDGVFDVLTNEEVGKICQNATSASALAYDIKNIAFELLSQDNISCIAVDLENMAFSNEGHHHHHH	soluble
MASQTNQTVVDTKKIETENPPKPQVPASSCRKRVKDDNATFFANLKDHMDEFIHASMDEHKTCFKNTMDKIFGSFSKAEAVAEKQIEAKEVVEIHSPLQTAVTK	soluble
